Reference: US20040054131A1 (CHIRON, published 2004)
Positions count from the first letter of the chain named. Bridges are numbered along the chain shown (N, C = ends). Where no end group is shown, it is not given here.

B1: C19-jun fusion protein (designed binder)
chain: MAESGDDYCVLVFTDSAWTKICDWSHFRNGPGGGSGGGSGGGSGGGSGGGSRCGGRIARLEEKVKTLKAQNSELASTANMLREQVAQLKQKVMNHGGCGGSGGHHHHHH
notes: also called Clone 19-jun protein
B2: C19junΔhep (designed binder)
chain: B1 chain with R56Q, R59Q, K65Q, K68Q
notes: also called C19jun?hep; C19junahep
B3: FGFR1c extracellular domain-IgG fusion protein (Fc fusion, human, UniProt P11362 22-377, looked up)
chain: RPSPTLPEQAQPWGAPVEVESFLVHPGDLLQLRCRLRDDVQSINWLRDGVQLAESNRTRITGEEVEVQDSVPADSGLYACVTSSPSGSDTTYFSVNVSDALPSSEDDDDDDDSSSEEKETDNTKPNRMPVAPYWTSPEKMEKKLHAVPAAKTVKFKCPSSGTPNPTLRWLKNGKEFKPDHRIGGYKVRYATWSIIMDSVVPSDKGNYTCIVENEYGSINHTYQLDVVERSPHRPILQAGLPANKTVALGSNVEFMCKVYSDPQPHIQWLKHIEVNGSKIGPDNLPYVQILKTAGVNTTDKEMEVLHLRNVSFEDAGEYTCLAGNSIGLSHHSAWLTVLEALEERPAVMTSPLYLEI
notes: range 1-377; also called FGFR-IgG; FGFR ECD; not shown: Fc region of human IgG1
B4: C19 with truncation of the C-terminal 7 amino acids (peptide)
peptide: AESGDDYCVLVFTDSAWTKIC
B5: C19 synthetic peptide (peptide)
peptide: AESGDDYCVLVFTDSAWTKICDWSHFRN
modifications: disulfide 8-21 (inferred)
notes: also called C19 peptide; C19 clone

Key:
[1] = target: FGF receptor (FGFR) on Swiss 3T3 cells; test: cell-based or functional assay
[2] = target: B3; test: BIAcore real-time kinetic analysis, immobilized FGFR1c ECD, no heparin; approximate apparent affinity
Procedure: C19 peptide with an intrapeptide disulfide bond was synthesized, purified by HPLC, and characterized by mass spectroscopy. C19junΔhep protein was prepared by changing human c-jun residues Arg276, Arg279, Lys285, and Lys288 in the leucine zipper domain to glutamines. […] The extracellular ligand-binding domain of human FGFR Ic (residues 1-377) and human erythropoietin receptor (residues 1-250) were fused to the Fe region of human IgGI, expressed in baculovirus and purified by protein A affinity chromatography. […] PDGF receptor Fc fusion protein was from R&D Systems.

[3] = target: T1, F12 phagemid (F12 clone peptide displayed on M13 p8) (bacteriophage M13); test: displacement of Europium-labeled FGFR-IgG by unlabeled FGFR-IgG from F12 phagemid captured on anti-M13 antibody (time-resolved fluorescence)
T1 construct: Assayed as whole phagemid particles captured by anti-M13 antibody; The frame A-X3-C-X10-C-X3-(GGS)2GG-p8 is inferred from the 18mer two-cysteine pattern of F12; not shown: M13 p8 coat protein, peptide fused to its N-terminus
Procedure: Nunc Maxisorp 96-well plates were coated with […] anti-M13 antibody in […] 50 mM Na₂CO₃ pH 9.6 and blocked using the conditions described in Example 2. Phagemid (˜10¹¹ cfu) were applied to wells in binding buffer for 1h and washed 6 times with PBS, 0.05% Tween 20, and 2 times with Delphia Wash Buffer (E&G Wallac). […] Wells were washed 8× in Delphia Wash Buffer, treated with 100 μL of Delphia Enhancer Solution and fluorescence measured. IC₅₀ values were determined from four-parameter fits to displacement plots.

[4] = target: B3; test: deletion mutant analysis; method not stated

Binder | Kd [2] [nM] | further results
B1 | 10 | EC50 of mitogenesis (BrdU incorporation) in Swiss 3T3 cells with 15 U/ml heparin [1]: 0.24 nM
B2 | 10 | 
B3 |  | IC50 [3]: ~12 nM
B4 |  | fold loss of affinity against untruncated C19 [4]: ~15 fold
B5 | 400 | 
